Test results as given in paper doi:10.1101/2021.11.23.469727 (bioRxiv, 2021).
Where a chain is given by its changes, count along the chain named.

Key:
native gel or EMSA = biological target: the molecule itself; experiment: native gel or EMSA
Halo:pdf2ΔST = biological target: T1, Halo:pdf2ΔST (Arabidopsis thaliana, UniProt Q93V99 1-244+475-743, internal_change); experiment: EMSA
T1 sequence: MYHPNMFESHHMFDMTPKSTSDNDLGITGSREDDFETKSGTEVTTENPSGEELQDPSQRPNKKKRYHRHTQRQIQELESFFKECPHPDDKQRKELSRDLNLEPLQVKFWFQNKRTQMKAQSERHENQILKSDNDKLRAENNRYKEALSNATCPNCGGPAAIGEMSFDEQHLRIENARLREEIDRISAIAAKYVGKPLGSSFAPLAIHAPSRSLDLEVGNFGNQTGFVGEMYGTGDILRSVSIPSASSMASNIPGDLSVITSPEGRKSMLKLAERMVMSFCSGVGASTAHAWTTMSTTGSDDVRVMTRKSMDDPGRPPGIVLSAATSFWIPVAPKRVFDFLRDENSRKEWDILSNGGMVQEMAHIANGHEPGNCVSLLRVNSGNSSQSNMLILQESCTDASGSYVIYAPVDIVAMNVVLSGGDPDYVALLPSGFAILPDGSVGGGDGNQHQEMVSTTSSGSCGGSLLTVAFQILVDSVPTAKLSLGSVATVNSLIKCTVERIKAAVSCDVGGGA

Halo:atml1ΔST = biological target: T2, Halo:atml1ΔST (Arabidopsis thaliana, UniProt Q8RWU4 1-253+483-762, internal_change); experiment: EMSA
T2 sequence: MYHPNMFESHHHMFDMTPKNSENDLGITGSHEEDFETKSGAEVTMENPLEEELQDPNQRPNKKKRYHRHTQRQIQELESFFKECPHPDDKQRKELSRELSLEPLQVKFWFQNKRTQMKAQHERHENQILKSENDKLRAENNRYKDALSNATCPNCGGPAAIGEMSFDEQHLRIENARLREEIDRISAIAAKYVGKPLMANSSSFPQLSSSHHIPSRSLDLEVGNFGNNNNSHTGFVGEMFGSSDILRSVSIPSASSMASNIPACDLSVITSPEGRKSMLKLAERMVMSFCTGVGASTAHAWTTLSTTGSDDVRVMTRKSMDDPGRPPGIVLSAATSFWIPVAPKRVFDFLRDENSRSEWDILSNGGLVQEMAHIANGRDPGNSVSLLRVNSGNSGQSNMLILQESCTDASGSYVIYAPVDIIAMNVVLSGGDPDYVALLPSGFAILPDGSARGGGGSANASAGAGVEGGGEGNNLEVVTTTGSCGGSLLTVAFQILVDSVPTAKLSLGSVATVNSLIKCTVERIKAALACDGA

Halo:PDF2 = biological target: T3, Halo:PDF2 (Arabidopsis thaliana, UniProt Q93V99 1-743); experiment: EMSA
T3 sequence: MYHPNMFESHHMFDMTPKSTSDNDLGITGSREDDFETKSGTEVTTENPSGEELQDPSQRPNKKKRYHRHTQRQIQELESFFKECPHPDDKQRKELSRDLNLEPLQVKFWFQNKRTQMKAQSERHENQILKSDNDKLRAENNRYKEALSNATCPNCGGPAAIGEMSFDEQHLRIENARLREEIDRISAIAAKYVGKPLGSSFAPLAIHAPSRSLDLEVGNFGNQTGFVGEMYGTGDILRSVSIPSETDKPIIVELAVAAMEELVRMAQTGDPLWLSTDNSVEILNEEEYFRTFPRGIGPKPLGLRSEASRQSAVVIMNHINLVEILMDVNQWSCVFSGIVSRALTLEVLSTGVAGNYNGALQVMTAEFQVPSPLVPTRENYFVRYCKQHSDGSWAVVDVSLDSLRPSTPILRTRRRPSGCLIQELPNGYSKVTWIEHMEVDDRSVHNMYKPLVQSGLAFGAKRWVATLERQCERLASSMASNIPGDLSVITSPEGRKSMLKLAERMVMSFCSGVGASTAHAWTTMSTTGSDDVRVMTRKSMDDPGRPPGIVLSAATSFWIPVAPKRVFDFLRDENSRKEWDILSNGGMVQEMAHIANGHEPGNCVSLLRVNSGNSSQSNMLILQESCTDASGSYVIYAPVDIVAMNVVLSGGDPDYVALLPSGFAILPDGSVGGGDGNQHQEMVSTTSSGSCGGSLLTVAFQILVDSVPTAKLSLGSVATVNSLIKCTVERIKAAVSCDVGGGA

Halo:pdf2K107E = biological target: T4, Halo:pdf2K107E (Arabidopsis thaliana, UniProt Q93V99 1-743, K107E); experiment: EMSA
T4 sequence: T3 sequence with K107E

Halo:ATML1 = biological target: T5, Halo:ATML1 (Arabidopsis thaliana, UniProt Q8RWU4 1-762); experiment: EMSA
T5 sequence: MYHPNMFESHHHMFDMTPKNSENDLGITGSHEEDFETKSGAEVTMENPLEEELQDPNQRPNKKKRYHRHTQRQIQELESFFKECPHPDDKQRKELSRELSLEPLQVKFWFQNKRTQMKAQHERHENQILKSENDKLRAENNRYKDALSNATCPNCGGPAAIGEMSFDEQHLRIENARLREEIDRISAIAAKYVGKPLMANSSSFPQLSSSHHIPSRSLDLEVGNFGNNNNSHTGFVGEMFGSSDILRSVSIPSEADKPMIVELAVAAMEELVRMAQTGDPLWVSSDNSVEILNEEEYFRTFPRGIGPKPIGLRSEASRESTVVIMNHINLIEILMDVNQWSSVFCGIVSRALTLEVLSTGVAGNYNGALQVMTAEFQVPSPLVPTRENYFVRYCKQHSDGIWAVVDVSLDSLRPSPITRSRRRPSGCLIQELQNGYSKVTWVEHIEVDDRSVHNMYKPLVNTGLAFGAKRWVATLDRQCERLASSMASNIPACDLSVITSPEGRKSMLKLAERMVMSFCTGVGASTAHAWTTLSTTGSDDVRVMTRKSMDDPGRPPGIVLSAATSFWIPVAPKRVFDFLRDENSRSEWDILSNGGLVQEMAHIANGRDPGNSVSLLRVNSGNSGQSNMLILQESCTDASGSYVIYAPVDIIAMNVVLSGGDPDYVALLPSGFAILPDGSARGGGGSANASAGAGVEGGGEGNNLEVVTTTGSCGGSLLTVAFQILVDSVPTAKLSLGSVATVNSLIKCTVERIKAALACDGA

B1: Halo:PDF2 (PROTODERMAL FACTOR2, full length, Halo-tagged) (natural protein, Arabidopsis thaliana, UniProt Q93V99 1-743, looked up)
chain: T3 sequence
Native gel or EMSA
  stoichiometry N: 2

B2: ATML1 (Arabidopsis thaliana MERISTEM LAYER1), wild type, protein of the EMSA (natural protein, UniProt Q8RWU4 1-762, looked up)
chain: T5 sequence
Native gel or EMSA
  stoichiometry N: 2

B3: L1-box probe (3x L1 motif) (dsDNA)
DNA 1: GGGTACATTTATACATTTATACATTTAAAT
DNA 2: ATTTAAATGTATAAATGTATAAATGTACCC
Halo:pdf2ΔST
  binding result: binds
Halo:atml1ΔST
  binding result: binds
Halo:PDF2
  binding result: binds
Halo:pdf2K107E
  binding result: no binding
Halo:ATML1
  binding result: binds
